The results in this text go back to US20210332115A1 (Sanofi, published 2021).

The target in test [1] is T1, Homo sapiens factor Bb protein (human, UniProt P00751 260-764).
T1 construct: Bought from CompTech (A155); also called complement factor Bb; human factor Bb
The test can be described thus: BLI Octet, biotinylated antibody on SA biosensors. On the procedure:
Briefly, biotinylated antibodies were loaded onto SA Biosensors equilibrated in PBS, 0.1% BSA, 0.02% Tween-20 (assay buffer). After a 60 second baseline in assay buffer, antibodies were loaded onto the probes for 180 seconds, followed by another 60 second baseline. Association to human (Comptech) or cynomolgus monkey factor Bb (purified in-house) was measured for 300 seconds, followed by a 300 second dissociation. Kinetic parameters were calculated by the Octet Analysis software using a 1:1 binding model.
To determine whether the modification of the Fc portion of the antibodies affected affinity and species cross-reactivity, VH4/VK6-IgG4v2 and VH6/VK7-IgG4v2 were tested alongside their parental antibodies, VH4/VK6 and VH6/VK7, respectively, for their ability to bind human and cynomolgus monkey factor Bb by BLI. VH4/VK6-IgG4v2 and VH6/VK7-IgG4v2 contain mutations in the Fc region that increase the affinity for an Fc receptor.
Background: In BLI a coated tip is dipped into the sample, and binding shifts an interference pattern.

The target of test [2] is T1, Homo sapiens factor Bb protein. The test can be described thus: SPR single cycle kinetics, antibody on Protein A chip, antigen analyte. On the procedure: (§1) The ability of VH4/VK6 and VH6/VK7 to bind to zymogen factor B and factor Bb from both human and cynomolgus monkey was determined by surface plasmon resonance using a Biacore T200. Human factor B and factor Bb were purchased from Comptech and cynomolgus monkey factor B and factor Bb were purified in-house. Briefly, the monoclonal antibodies were captured on a Biacore Series S Protein A chip in HBSP+ (10 mM HEPES, 150 mM NaCl, 0.05% P20 pH 7.4) at a flow rate of 30 μL/min. A five-point concentration series of each analyte was tested for binding using single cycle kinetics with a contact time of 180 seconds per concentration followed by a 600 sec dissociation at 25° C. and a flow rate of […]. Both human and cynomolgus monkey factor B started at a concentration of 500 nM followed by 2-fold dilutions, while human and cynomolgus monkey factor Bb started at concentrations of 30 nM and 150 nM, respectively, followed by 2-fold dilutions. Data were analyzed using the Biacore evaluation software using a 1:1 binding model. […] Binding to human or cynomolgus monkey factor B was barely detectable and the small signal that was observed was dominated by non-specific binding.

For test [3] the target is unchanged. Kind of test: SPR single cycle kinetics; against cynomolgus monkey factor Bb. On the procedure:
as §1

For test [4] the target is unchanged. The test can be described thus: BLI, multi-cycle kinetics, antibody loaded on anti-hIgG Fc sensors, human factor Bb in solution (100 nM to 0.14 nM), 1:1 fit. As for the experimental part: Multicycle kinetic analysis was performed on CHO and HEK-produced VH6/VK7-IgG4v2 antibodies using biolayer interferometry. Antibodies were diluted to 10 μg/mL in PBS+ 0.02%. Tween20, 0.1% BSA, 0.05% sodium azide and loaded onto anti-hIgG Fc sensors (pre-equilibrated in the same buffer) for 90 seconds followed by a 60-minute baseline in buffer. Binding of a concentration series of human factor Bb (Complement Technologies, #A155), ranging from 100 nM to 0.14 nM in 2-fold dilutions, was measured in a 300 second association in the same buffer, followed by a 300 second dissociation step.

T1 sequence (P00751 260-764 limits assumed): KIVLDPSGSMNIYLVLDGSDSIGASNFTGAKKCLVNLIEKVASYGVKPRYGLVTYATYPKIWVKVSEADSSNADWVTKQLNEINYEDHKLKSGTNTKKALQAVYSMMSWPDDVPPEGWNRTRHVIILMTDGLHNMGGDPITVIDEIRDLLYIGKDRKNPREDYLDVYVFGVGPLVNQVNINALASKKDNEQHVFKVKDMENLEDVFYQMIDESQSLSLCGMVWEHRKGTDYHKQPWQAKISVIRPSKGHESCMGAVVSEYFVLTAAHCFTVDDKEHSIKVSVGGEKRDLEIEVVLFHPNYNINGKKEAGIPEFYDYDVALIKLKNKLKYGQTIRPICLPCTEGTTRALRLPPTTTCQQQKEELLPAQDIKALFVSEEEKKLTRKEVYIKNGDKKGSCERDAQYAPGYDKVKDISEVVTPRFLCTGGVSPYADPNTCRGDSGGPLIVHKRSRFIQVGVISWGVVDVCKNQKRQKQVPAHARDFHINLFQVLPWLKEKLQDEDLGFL

B1: VH4/Vκ6-IgG4v2 (antibody)
heavy: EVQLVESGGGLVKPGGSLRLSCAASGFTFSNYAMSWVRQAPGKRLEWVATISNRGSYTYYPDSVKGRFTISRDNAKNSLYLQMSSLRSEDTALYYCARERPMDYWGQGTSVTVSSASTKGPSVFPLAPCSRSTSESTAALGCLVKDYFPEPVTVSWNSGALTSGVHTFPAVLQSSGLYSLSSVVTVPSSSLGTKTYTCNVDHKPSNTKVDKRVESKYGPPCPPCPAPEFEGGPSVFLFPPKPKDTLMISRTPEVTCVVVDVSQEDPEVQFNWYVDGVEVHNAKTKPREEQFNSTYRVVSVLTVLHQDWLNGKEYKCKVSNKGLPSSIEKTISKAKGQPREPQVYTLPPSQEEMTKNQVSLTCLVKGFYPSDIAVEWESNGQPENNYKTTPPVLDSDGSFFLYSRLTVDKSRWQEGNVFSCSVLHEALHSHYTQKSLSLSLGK
light: DIVMTQSPSFLSASVGDRVTITCKASQDVGTAVAWYQQKPGKAPKLLIYWASTRHTGVPDRFTGSGSGTDFTLTISSLQSEDFAVYFCHQHSSNPLTFGQGTKLEIKRTVAAPSVFIFPPSDEQLKSGTASVVCLLNNFYPREAKVQWKVDNALQSGNSQESVTEQDSKDSTYSLSSTLTLSKADYEKHKVYACEVTHQGLSSPVTKSFNRGEC
notes: also called VH4/VK6-IgG4v2
By Kd is commonly meant the equilibrium constant for the complex coming apart. Broadly, the koff is the first-order rate constant of dissociation. One may read the kon as a measure of how fast the partners come together. The molecule B1 showed a dissociation constant (Kd) in test [1] of 1.6 nM. In test [2], the affinity, expressed as Kd, was 2.26 nM; the koff was found to be 0.000925 s⁻¹; the kon came out at 410000 M⁻¹ s⁻¹. For the same molecule, the “fold higher affinity for human factor Bb compared to cynomolgus monkey factor Bb” value in test [3] was roughly 10 fold.

B2: VH6/Vk7-IgG4v2-CHO (antibody)
heavy chain: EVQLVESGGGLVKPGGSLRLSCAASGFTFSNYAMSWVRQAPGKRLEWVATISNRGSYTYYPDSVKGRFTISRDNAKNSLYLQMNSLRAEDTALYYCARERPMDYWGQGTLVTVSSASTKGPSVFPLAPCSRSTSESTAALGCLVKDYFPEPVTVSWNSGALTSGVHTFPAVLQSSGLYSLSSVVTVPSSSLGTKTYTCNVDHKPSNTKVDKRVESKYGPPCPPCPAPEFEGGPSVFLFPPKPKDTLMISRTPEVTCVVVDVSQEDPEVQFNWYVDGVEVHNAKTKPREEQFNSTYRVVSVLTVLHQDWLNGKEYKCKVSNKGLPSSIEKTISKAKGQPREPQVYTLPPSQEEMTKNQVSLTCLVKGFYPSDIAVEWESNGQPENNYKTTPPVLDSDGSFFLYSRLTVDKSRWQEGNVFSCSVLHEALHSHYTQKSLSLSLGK
light chain: DIQMTQSPSTLSASVGDRVTITCKASQDVGTAVAWYQQKPGKAPKLLIYWASTRHTGVPDRFSGSGSGTDFTLTISSLQAEDFAVYFCHQHSSNPLTFGQGTKLEIKRTVAAPSVFIFPPSDEQLKSGTASVVCLLNNFYPREAKVQWKVDNALQSGNSQESVTEQDSKDSTYSLSSTLTLSKADYEKHKVYACEVTHQGLSSPVTKSFNRGEC
On to B2, for which the dissociation constant Kd in test [4] turned out to be 2.7 nM.
